Data: patent US20240116985A1 (published 2024)
One block for each binder: values may come before it. Starred links: 1 amine or outer side, 2 acyl side, 3 side chain; linkers in the order of their positions; H or OH if unused. Positions of bridges follow the written chain, without caps; N, C: chain ends. Non-standard residues stand in square brackets, D forms with d. Primed or numbered codes have the meaning given here. PyrS2″ = (S)-3-amino-1-((pent-4-en-1-yloxy)carbonyl)pyrrolidine-3-carboxylic acid (stapling residue), C=CCCCOC(=O)N1CC[C@@](N[*:1])(C(=O)[*:2])C1; B5(4) = 2,2-bis(4-pentenyl)glycine = 2-amino-2-(pent-4-en-1-yl)hept-6-enoic acid (stitching residue), C=CCCCC(CCCC=C)(N[*:1])C(=O)[*:2]; TfeGA = (S)-2-amino-3-((carboxymethyl)(2,2,2-trifluoroethyl)amino)propanoic acid, O=C([C@H](CN(CC(=O)[*:3])CC(F)(F)F)N[*:1])[*:2]; B5(3) = 2,2-bis(4-pentenyl)glycine (stitching residue), C=CCCCC(CCCC=C)(N[*:1])C(=O)[*:2]; AcLys″ = N6-acetyl-lysine, CC(=O)NCCCC[C@H](N[*:1])C(=O)[*:2]; Phe(3-COOH) = N[C@@H](Cc1cccc(C(=O)O)c1)C(=O)O; Phe(2-CF3) = N[C@@H](Cc1ccccc1C(F)(F)F)C(=O)O; Bta = N[C@@H](Cc1csc2ccccc12)C(=O)O; αAllylPro = C=CC[C@@]1(C(=O)O)CCCN1; tBuAla = CC(C)(C)C[C@H](N)C(=O)O; 3Thi = N[C@@H](Cc1ccsc1)C(=O)O; Abu = CC[C@H](N)C(=O)O; Aib = CC(C)(N)C(=O)O

Assays:
Experiment in all cases: cell-based or functional assay
[1] = biological target: T1, beta-catenin in DLD1 TCF/LEF luciferase reporter cells (UniProt P35222 1-781)
T1 sequence (looked up): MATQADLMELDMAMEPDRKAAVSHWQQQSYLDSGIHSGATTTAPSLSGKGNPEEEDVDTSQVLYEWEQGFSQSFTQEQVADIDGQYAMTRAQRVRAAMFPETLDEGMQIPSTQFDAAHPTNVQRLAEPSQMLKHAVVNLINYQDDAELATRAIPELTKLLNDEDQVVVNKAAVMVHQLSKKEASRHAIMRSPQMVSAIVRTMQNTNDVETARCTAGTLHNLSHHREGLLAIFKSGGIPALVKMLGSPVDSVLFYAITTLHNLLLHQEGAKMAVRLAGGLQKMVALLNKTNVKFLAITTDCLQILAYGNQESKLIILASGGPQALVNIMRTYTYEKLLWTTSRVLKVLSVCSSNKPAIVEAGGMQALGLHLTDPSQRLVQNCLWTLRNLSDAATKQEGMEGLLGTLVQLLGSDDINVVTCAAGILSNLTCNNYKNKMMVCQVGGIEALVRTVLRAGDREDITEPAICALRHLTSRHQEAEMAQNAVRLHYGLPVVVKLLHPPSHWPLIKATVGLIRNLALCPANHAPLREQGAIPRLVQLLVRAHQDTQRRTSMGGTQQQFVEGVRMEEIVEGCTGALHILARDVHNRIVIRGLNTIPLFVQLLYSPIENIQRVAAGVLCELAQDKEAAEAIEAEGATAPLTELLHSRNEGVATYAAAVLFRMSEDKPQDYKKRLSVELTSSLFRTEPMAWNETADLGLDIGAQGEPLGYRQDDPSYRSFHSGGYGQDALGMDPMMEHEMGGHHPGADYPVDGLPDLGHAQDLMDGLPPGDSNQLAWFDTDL

[2] = biological target: T2, B-cat-Halo (beta-catenin HaloTag NanoBRET construct expressed in HEK293 cells) (UniProt P35222 1-781)
T2 sequence (looked up): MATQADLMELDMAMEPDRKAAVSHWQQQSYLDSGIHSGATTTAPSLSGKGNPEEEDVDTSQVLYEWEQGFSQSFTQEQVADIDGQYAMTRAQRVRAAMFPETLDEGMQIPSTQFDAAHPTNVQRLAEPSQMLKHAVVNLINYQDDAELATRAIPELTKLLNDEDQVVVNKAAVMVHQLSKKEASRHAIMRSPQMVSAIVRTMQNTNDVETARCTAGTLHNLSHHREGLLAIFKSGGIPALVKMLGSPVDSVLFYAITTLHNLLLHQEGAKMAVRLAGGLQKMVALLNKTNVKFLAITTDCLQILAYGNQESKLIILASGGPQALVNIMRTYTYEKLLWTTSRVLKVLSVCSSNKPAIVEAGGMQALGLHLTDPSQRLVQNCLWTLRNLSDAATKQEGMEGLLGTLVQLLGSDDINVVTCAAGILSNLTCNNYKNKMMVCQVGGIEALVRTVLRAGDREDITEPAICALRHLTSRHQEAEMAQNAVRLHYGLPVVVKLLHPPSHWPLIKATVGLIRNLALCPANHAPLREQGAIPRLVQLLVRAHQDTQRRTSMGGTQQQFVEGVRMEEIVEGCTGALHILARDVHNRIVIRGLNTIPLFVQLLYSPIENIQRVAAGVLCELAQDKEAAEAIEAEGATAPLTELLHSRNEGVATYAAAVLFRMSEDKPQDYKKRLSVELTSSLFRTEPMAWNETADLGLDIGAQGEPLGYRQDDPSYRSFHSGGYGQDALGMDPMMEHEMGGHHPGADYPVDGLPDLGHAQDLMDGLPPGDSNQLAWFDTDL

[3] = biological target: T3, beta-catenin in DLD1 TCF/LEF luciferase reporter cells (UniProt P35222 1-781); remark: listed apart in the source
T3 sequence (looked up): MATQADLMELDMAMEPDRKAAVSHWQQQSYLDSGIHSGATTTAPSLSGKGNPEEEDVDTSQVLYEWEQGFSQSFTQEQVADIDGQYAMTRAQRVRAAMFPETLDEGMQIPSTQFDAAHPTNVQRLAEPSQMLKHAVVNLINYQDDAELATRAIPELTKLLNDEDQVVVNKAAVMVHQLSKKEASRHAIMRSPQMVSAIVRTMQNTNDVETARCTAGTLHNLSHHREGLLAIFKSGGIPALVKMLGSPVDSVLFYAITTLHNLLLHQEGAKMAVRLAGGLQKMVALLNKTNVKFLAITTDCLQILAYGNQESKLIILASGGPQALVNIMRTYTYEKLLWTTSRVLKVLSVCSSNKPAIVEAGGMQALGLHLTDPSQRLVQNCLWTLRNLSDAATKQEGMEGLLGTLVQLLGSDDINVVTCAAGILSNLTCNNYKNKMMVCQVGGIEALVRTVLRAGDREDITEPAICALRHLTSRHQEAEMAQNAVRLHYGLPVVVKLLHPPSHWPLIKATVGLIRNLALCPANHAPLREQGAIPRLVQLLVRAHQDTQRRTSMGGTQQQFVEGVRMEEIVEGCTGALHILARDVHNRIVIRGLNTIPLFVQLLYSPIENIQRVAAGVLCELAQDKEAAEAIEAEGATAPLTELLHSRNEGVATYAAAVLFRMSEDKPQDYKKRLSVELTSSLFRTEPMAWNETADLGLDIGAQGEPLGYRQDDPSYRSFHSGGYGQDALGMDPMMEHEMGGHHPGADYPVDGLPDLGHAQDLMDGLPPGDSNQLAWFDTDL

B-cat-Halo = biological target: T4, B-cat-Halo (UniProt P35222 1-781)
T4 sequence (looked up): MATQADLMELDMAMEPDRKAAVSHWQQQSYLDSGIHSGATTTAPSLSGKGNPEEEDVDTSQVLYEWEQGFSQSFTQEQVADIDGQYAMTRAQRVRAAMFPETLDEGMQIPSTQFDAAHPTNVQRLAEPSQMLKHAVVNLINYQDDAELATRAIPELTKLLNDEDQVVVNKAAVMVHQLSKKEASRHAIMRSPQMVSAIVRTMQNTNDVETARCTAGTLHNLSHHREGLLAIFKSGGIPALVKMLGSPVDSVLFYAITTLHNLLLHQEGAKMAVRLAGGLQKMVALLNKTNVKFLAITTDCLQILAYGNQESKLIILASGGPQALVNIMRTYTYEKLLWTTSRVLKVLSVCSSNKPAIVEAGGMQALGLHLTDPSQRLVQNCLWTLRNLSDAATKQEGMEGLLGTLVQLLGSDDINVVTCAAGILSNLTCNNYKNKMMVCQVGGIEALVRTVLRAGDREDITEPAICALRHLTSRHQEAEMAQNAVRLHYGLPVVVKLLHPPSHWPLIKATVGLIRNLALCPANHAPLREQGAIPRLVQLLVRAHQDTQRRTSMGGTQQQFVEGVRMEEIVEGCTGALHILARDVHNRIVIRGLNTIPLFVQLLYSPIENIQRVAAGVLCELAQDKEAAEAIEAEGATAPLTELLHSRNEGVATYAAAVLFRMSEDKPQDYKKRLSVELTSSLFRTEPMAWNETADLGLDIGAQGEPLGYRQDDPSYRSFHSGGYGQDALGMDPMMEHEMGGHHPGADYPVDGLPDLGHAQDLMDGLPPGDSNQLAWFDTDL

[4] = biological target: T5, beta-catenin in DLD1 TCF/LEF luciferase reporter cells (UniProt P35222 1-781); remark: listed apart in the source
T5 sequence (looked up): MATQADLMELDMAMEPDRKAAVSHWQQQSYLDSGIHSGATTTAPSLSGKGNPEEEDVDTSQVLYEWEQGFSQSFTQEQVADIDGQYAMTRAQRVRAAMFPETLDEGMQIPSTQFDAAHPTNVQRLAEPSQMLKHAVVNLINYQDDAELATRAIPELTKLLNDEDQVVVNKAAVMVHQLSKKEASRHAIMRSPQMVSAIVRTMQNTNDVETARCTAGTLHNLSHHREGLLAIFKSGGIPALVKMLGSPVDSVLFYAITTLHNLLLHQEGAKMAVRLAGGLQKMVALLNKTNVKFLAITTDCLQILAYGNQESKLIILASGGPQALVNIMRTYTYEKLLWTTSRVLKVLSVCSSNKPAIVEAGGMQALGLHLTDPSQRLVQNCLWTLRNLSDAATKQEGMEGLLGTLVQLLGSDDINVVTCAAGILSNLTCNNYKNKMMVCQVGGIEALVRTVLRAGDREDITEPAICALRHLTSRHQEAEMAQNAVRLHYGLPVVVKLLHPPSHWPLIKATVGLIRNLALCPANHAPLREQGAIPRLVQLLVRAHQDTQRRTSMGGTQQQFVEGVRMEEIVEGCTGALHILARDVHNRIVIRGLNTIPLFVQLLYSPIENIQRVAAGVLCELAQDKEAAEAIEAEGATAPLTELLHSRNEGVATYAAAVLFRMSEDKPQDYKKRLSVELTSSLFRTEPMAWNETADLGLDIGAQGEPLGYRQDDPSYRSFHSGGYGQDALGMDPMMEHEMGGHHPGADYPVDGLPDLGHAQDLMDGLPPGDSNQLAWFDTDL

DLD1 reporter assay Abs IC50 [1]: 5.2 µM
B1: I-988 (peptide)
peptide: Ac-[αAllylPro]D[tBuAla][B5(3)]D[TfeGA]AAFF[PyrS2″]F[Bta]Q-NH2
modifications: staple 1-4, 4-11

NanoBRET Abs IC50 [2]: 6.2 µM
DLD1 4% Abs IC50 [3]: 6.4 µM
B2: Ac-PL3-Asp-Npg-B5-Asp-3COOHF-Aib-Ala-Phe-Abu-PyrS2-2F3MeF-BztA-Me2Gln-Ala-NH2 (peptide)
peptide: Ac-[αAllylPro]D[tBuAla][B5(3)]D[Phe(3-COOH)][Aib]AF[Abu][PyrS2″][Phe(2-CF3)][Bta][Me2Gln]A-NH2
modifications: staple 1-4, 4-11

NanoBRET Abs IC50 (B-cat-Halo): 6.2 µM
DLD1 4% Abs IC50 [4]: 3.9 µM
B3: I-1709 (peptide)
peptide: Ac-[αAllylPro]D[tBuAla][B5(4)]D[TfeGA]AAFL[PyrS2″][3Thi][Bta][AcLys″]-NH2
modifications: staple 1-4, 4-11
